These are literature values, as cited in article PMC2375062.

The target of this data set is uPA (Homo sapiens) (UniProt P00749).

glu-plasminogen (from UniProt P00747): the Kd (commonly the concentration at which binding is half-saturated) was 0.05 µM.
